Measurements: the supplement of paper PMC9170038

Tests used:
[1] = test system: MS2 coat protein; test: apparent KD of MS2 coat protein; higher = weaker reporter binding; details: Eterna round: R101
Method: (§1)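 RNA-MaP: designed FMN/MS2 RNA switches (84 nt design region) are transcribed on-chip within common flanks and titrated with SNAP-549-labelled MS2 coat protein (about 1-3000 nM) in 100 mM Tris pH 7.5, 80 mM KCl, 4 mM MgCl2, without or with 200 uM FMN. Median apparent KD per design; activation ratio = KD,OFF / KD,ON.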

[2] = test system: MS2 coat protein; test: apparent KD of MS2 coat protein; designed switch direction (-1 OFF switch, 1 ON switch): 1; higher = weaker reporter binding; details: Eterna round: R98
Method: as §1

[3] = test system: MS2 coat protein; test: apparent KD of MS2 coat protein, switch ON state; designed switch direction (-1 OFF switch, 1 ON switch): 1; higher = weaker reporter binding; details: FMN input: 0 or 200 uM; Eterna round: R93 (includes R88 designs)
Summary of the method: (§2)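 In 100 mM Tris-HCl pH 7.5 with 80 mM KCl and 4 mM MgCl2, and without or with constant ligand, SNAP-549-labelled MS2 coat protein was titrated in twofold steps from 0.7 or 1.5 nM to 3 µM. Per-step times went from 0.8–1.5 h down to 10–20 min. The RNA switches were transcribed on-chip from Illumina sequencing clusters, and apparent KD is the per-design median of normalised cluster binding-curve fits.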

[4] = test system: MS2 coat protein; test: apparent KD of MS2 coat protein, switch OFF state (with FMN for OFF switches, without FMN for ON switches); designed switch direction (-1 OFF switch, 1 ON switch): 1; higher = weaker reporter binding; details: FMN input: 0 or 200 uM; Eterna round: R93 (includes R88 designs)
Summary of the method: as §2

Row | Sequence | apparent KD of MS2 coat protein ([2]; input ligand: FMN 200 uM) | apparent KD of MS2 coat protein ([2]; input ligand: none) | further results
1 | UAGAAGCUCACAGGAUAUCAGUAUGCGCGAUCUAACGCAUUAAUGAACUGCUGAGAAGGGUGAGACAUGAGGAUCACCCAUGUA [Enesraadi] (puzzle (switch architecture): Small Loop Same State NG 1) |  |  | apparent KD of MS2 coat protein ([1]; input ligand: FMN 200 uM): 395 nM; apparent KD of MS2 coat protein ([1]; input ligand: none): 236 nM
2 | GUAGCAUUCUGAGGAUAUUCAUACCGGAAACGGACAUGAGGAUCACCCAUGUGGCGAAAGCCUUGGGAGAAGGCAGUAUGCUAC [#DoubleMagnetSystem - Xeonanis 25 9 - Original] (puzzle (switch architecture): Same State NG 2) |  |  | apparent KD of MS2 coat protein ([1]; input ligand: FMN 200 uM): 9.21 nM; apparent KD of MS2 coat protein ([1]; input ligand: none): 247 nM
3 | AAAGAUUUUUAAGGAUAUCAGUGGCAAAGCCACUGAGAAGGUGAGGAUCACCCAUCUACGUGACCCUGGAAACAGGGUCACGAA [#SharedSequence - ExNG1-16] (puzzle (switch architecture): Exclusion NG 1) |  |  | apparent KD of MS2 coat protein ([1]; input ligand: FMN 200 uM): 96.9 nM; apparent KD of MS2 coat protein ([1]; input ligand: none): 56.7 nM
4 | GCCAUCGCAUGAGGAUAUGGCACCGUUUCGGUGCCAGAAGGCAUGUCAUAAGACAUGAGGAUCACCCAUGUAAAUAAGAUGGCA [JanderMod 3 - Jieux - Same State NG 1] | 47.9 nM | 715 nM | 
5 | GGACUCACUUGAGGAUAUCGAGUGGAAUACACUCGAGAAGGCAGGAAAACCUGAGGAUCACCCAGGUAAGAGUCCAAUAAUAAU [Same State NG1 - A3C, U17G Submission 3C] | 17.1 nM | 17.9 nM | 
6 | UAAAUAAAUCCUAGAGGAUCACCCUAGGAUAUGAGGCUGCACCUCGGAUAAUCCGAGGUGCAGCCUCAGAAGGAGGGUAAUAAA [#SharedSequence - SLExNG3: 1-2] (puzzle (switch architecture): Small Loop Exclusion NG 3) |  |  | apparent KD of MS2 coat protein ([1]; input ligand: FMN 200 uM): 43.1 nM; apparent KD of MS2 coat protein ([1]; input ligand: none): 14.4 nM
7 | GGUCGACCUCAAGGAUAUGGACUGCUUUGCAGUCCAGAAGGUGAGGAUCACCCAUCUACGGUCAGGUUUCUGACCGAUCGACCU [#AddUracilToBrourdLoops 6 - Jieux - Exclusion NG1] (puzzle (switch architecture): Exclusion NG 1) |  |  | apparent KD of MS2 coat protein ([1]; input ligand: FMN 200 uM): 260 nM; apparent KD of MS2 coat protein ([1]; input ligand: none): 282 nM
8 | CCUGCACUUCAAGGAUAUCCAGUCGAAACGACUGGAGAAGGUGAGGAUCACCCAUCUAGCCUGACGAAAGUCAGGCAUGCAGGA [#SharedSequence - ExNG1-7] (puzzle (switch architecture): Exclusion NG 1) |  |  | apparent KD of MS2 coat protein ([1]; input ligand: FMN 200 uM): 101 nM; apparent KD of MS2 coat protein ([1]; input ligand: none): 90.4 nM
9 | CCGGAAACGGGUAGCUGACAUGAGGAUCACCCAUGUGAUACACAGGAUAUGGAUCCUAAUUGGAUCCAGAAGGGUGUCAGCUAC [Mat - Same State NG 3 - JL Mod - D84] | 130 nM | 1270 nM | 
10 | GGUCGACCUCAAGGAUAUGGACUGCUUUGCAGUCCAGAAGGUGAGGAUCACCCACCUACGGUCAGGUUUCUGACCGAUCGACCU [#AddUracilToBrourdLoops 2 - Jieux - Exclusion NG1] (puzzle (switch architecture): Exclusion NG 1) |  |  | apparent KD of MS2 coat protein ([1]; input ligand: FMN 200 uM): 79.2 nM; apparent KD of MS2 coat protein ([1]; input ligand: none): 14.2 nM
11 | GACCGUCCCACAGGAUAUAGAAGGGCGUCCGUUCUAGAAGGGUGAUCAGGACCAAAAGGUCACAUGAGGAUCACCCAUGUAGGU [Usorti] | 43.7 nM | 36.6 nM | 
12 | GGCCGGCAGCUAGGAUAUGGGCGGUCACAUGAGGAUCACCCAUGUCAACAUCAAAACCAGAUUAACCAGAAGGAGCUGCGAGUU [Arza] | 1230 nM | 27.6 nM | 
13 | GCUGUCGCAUGAGGAUAUGGUCUGCUUUGCAGACCAGAAGGCAUGUCGAUAGACAUGAGGAUCACCCAUGUAGUAAAGACAGCA [Mat - Same State NG 1 - JL Mod - D49] | 57.1 nM | 306 nM | 
14 | AUAAUAACUUGAGGAUAUGCUCAGGAAUACUGAGCAGAAGGCAGGGAAACCUGAGGAUCACCCAGGUAACUGGAAUAAUAAUAA [Same State NG1 - A3C, U17G Submission 4A] | 25.6 nM | 25.8 nM | 
15 | GCUGCUAUCGCAGGAUAUUACAUGGGAAAUAAAACAUGAGGAUCACCCAUGUUAAAUAUCGUAAAUAAGAAGGGCGAUAGCAGC [Lame State 2 - Jieux - Same State NG 2] | 178 nM | 1120 nM | 
16 | UUUGGGAGCACAGGAUAUGGCGCCUCGGAGGCGCCAGAAGGGUGAUUCUGUUGGUGGCCACAUGAGGAUCACCCAUGUGCCUCC [Rienorarve] | 19.2 nM | 15.9 nM | 
17 | GGUCCAACAUGAGGAUAUGGCACCUUAUUGGUGCCAGAAGGCGUGUCUAUAGACAUGAGGAUCACCCAUGUAAUAAAUUGGACC [SameState #22 NG1] | 45.4 nM | 796 nM | 

Row | Sequence | apparent KD of MS2 coat protein ([2]; input ligand: FMN 200 uM) | apparent KD of MS2 coat protein ([2]; input ligand: none) | further results
18 | AGAGCUGCUCAGAAGGAGGAUCACCCUUUCGAAAGAAAUACGGAGGCUGAAAAGCCUCCGAAAUUCUAGGAUAUGAGCAGCUCA [#SharedSequence - IExNG2: 7] (puzzle (switch architecture): Inverted Exclusion NG 2) |  |  | apparent KD of MS2 coat protein ([1]; input ligand: FMN 200 uM): 133 nM; apparent KD of MS2 coat protein ([1]; input ligand: none): 167 nM
19 | CUGCAAAUCUUAGGAUAUGCUCAGGAAUACUGAGCAGAAGGAAGAUAUACCUGAGGAUCACCCAGGUAAAACUGGAGCAGAAUA [Same State NG1 - A3C, U17G Submission 8G U68A, U7A] | 24.3 nM | 26.6 nM | 
20 | CUAAUAUAGUGAGGAUAUGCACAGGAUCACCGUGUAGAAGGCAUCAGGUAGAAGGUGCAGAGGAUCACCCUGUAAGGAUAUACC [pwkr2 ssNG1 DX.4] | 32.4 nM | 69.4 nM | 
21 | AUAAUAACUUGAGGAUAUGCUCAGGAAUACUGAGCAGAAGGCAGGGAAACCUGAGGAUCACCCAGGUAAAUAAUAAUAAUAAUA [Same State NG1 - A3C, U17G Submission 1B] | 19.3 nM | 24.5 nM | 
22 | AAAACAUACCGAGGAUAUUCAUAUAAUAAAUAAACAUGAGGAUCACCCAUUUGGCAAAAGCCUAGGGAGAAGGCGGAAUGCUAA [salish99_SSNG2_r2_119] | 658 nM |  | 
23 | ACAGGUCGUGAGAAGGCGGGUGGCACCGUCGAAAGACGGUGCAAUUAAAAUCUUCGAGGAUCACCCGAGGAUAUCACGACCUGA [#SharedSequence - IExNG2: 17] (puzzle (switch architecture): Inverted Exclusion NG 2) |  |  | apparent KD of MS2 coat protein ([1]; input ligand: FMN 200 uM): 28.6 nM; apparent KD of MS2 coat protein ([1]; input ligand: none): 55.9 nM
24 | UAUAUAUAAUAUAUUAACAUGAGGAUCACCCAUGUCGCUAGACAGGAUAUAUUUAAUAUUAUUAAGUAGAAGGGUCAUAUAAUU [LRO007_SS NG 3] | 77.4 nM | 78.6 nM | 
25 | AUAAUAACUUGAGGAUAUGCUCAGGAAUACUGAGCAGAAGGCAGGGAAACCUGAGGAUCACCCAGGUGAAUAAUAAUAAUAAUA [Same State NG1 - A3C, U17G Submission 1A] | 18.3 nM | 23.4 nM | 
26 | UCGUGUUUAACAGGAUAUCCUCAACGACACAUGAGGAUCACCCAUGUUCGGAGCCAAAUGGCUUAGGAGAAGGGUUAGAAACAA [Isceenvere] | 75.8 nM | 701 nM | 
27 | AAAACAUGAGGAUCACCCAUGUAAGAAUAAUUAAUUAUAAGUGAGGAUAUAUAAAUUAUAAAAUUGUAGAAGGCACUGGGUAUC [JR_SSNG3_Sub083] | 83.6 nM | 71 nM | 
28 | CGAGACACUUGAGGAUAUGCUCAGGAAUACUGAGCAGAAGGCAGGAAAACCUGAGGAUCACCCAGGUAACUGGAAAGUCUCGAA [Same State NG1 - A3C, U17G Submission 5E-G46A] | 16.9 nM | 19.6 nM | 
29 | AAACCACAUGAGGAUCACCCAUGUAAAAAUAUGGGAGGAUAUACUAGAAGAAACAAAAUAGUAGAAGGCCUAAAAA [75%, Ex sub1, 28] |  |  | apparent KD of MS2 coat protein [3]: 33.6 nM; apparent KD of MS2 coat protein [4]: 78.1 nM
30 | CAUGUCCUCACAGGAUAUGCUGGACUUUGUCCAGCAGAAGGGUGAUAACAUGAGGAUCACCCAUGUGGACAUGAUAUAUUUAAG [Mat - Same State NG 1 - Eli mod - D95] | 623 nM | 106 nM | 
31 | AAGAAACAUGAGGAUCACCCAUGUGAGAUAAACACAGGAUAUGCGAAAAGAAAUAAAGAAGCAGAAGGGUGAAGAA [Mat - Same State 1 - Tesla mod - 71] |  |  | apparent KD of MS2 coat protein [3]: 20.5 nM; apparent KD of MS2 coat protein [4]: 94.1 nM
32 | GGAACUACAGAUCAGGAUAUGUUUGGGUAAACAUGAGGAUCACCCAUGUGCACCCGAUACACAGGACAGAAGGGAUAACGUGGGA [Maondior] |  |  | apparent KD of MS2 coat protein [3]: 15.5 nM; apparent KD of MS2 coat protein [4]: 20.2 nM
33 | AAAAAACAUGAGGAUCACCCAUGUCCAAAAAAAAAAGGAUAUGCAAAAAAAAAAAAAAAAGCAGAAGGUUUAAAAA [Same State 1] |  |  | apparent KD of MS2 coat protein [3]: 41.2 nM; apparent KD of MS2 coat protein [4]: 45.1 nM
34 | ACUAGAAACGGGCAAUAACACAUGAGGAUCACCCAUGUGACACAGGAUAUAACCAGAUCAGAAAGUUAGAAGGGUGAGCCCGCA [Edraed Mod 1 - Jieux - Same State NG3] | 23.8 nM | 23.7 nM | 
